The text below walks through data of the supplement of paper PMC9112550, “Optimization of the antimicrobial peptide Bac7 by deep mutational scanning” (BMC Biology, 2022).

This data set relates to Escherichia coli TOP10. Description: shrunken log2 fold change of peptide-encoding DNA abundance (4.5 h post-induction vs induction); higher = less antimicrobial activity (less host growth inhibition). To be noted: time post-induction: 4.5 h; library: site-saturation at positions 5, 18, 19, 20.
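Also: peptides expressed intracellularly from a pBAD plasmid library in pooled LB shake-flask culture, induced with 0.3% L-arabinose, DNA abundance read by NGS, three biological replicates, DESeq2 with apeglm shrinkage.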

On to RRIRCRPPRLPRPRPRPVDAPRP, for which the “shrunken log2 fold change” value stood at 0.323. As for RRIRRRPPRLPRPRPRPRFHPRP, the “shrunken log2 fold change” value came out at 0.0555. Under RRIRIRPPRLPRPRPRPMDGPRP stands -0.108; under RRIRIRPPRLPRPRPRPWTRPRP, -0.187; under RRIRERPPRLPRPRPRPWHNPRP, -0.344. Under RRIRVRPPRLPRPRPRPYKGPRP stands -0.294; under RRIRHRPPRLPRPRPRPFKTPRP, -0.256; under RRIRLRPPRLPRPRPRPLMNPRP, -0.253.

With RRIRMRPPRLPRPRPRPDLIPRP, the “shrunken log2 fold change” value is 0.0508. As to RRIRNRPPRLPRPRPRPKTKPRP, the “shrunken log2 fold change” value was -0.0202.

In the case of RRIRARPPRLPRPRPRPWIDPRP, the “shrunken log2 fold change” value was -0.0113. Under RRIRPRPPRLPRPRPRPSKAPRP stands -0.175; under RRIRNRPPRLPRPRPRPRICPRP, 0.101.

Take RRIRSRPPRLPRPRPRPAMVPRP: the “shrunken log2 fold change” value was -0.274. Under RRIRDRPPRLPRPRPRPNWKPRP stands -0.0238. Under RRIRNRPPRLPRPRPRPGHDPRP stands 0.0277. Take RRIRLRPPRLPRPRPRPMQHPRP: the “shrunken log2 fold change” value was 0.256.

Consider RRIRRRPPRLPRPRPRPCATPRP, for which the “shrunken log2 fold change” value turned out to be 0.586.

With RRIRYRPPRLPRPRPRPTHTPRP, the “shrunken log2 fold change” value was 0.049. Under RRIRMRPPRLPRPRPRPFAAPRP stands 0.789; under RRIRNRPPRLPRPRPRPPELPRP, 0.142.

As to RRIRNRPPRLPRPRPRPEHQPRP, the “shrunken log2 fold change” value is -0.029.

For the sequence RRIRCRPPRLPRPRPRPIDIPRP, the “shrunken log2 fold change” value amounted to 0.0768.

RRIRKRPPRLPRPRPRPFRKPRP: the “shrunken log2 fold change” value was -0.304. Take RRIRARPPRLPRPRPRPYFAPRP: the “shrunken log2 fold change” value was -0.201. Under RRIRWRPPRLPRPRPRPFGTPRP stands 0.00184. With RRIRKRPPRLPRPRPRPTYPPRP, the “shrunken log2 fold change” value was -0.00526. With RRIRKRPPRLPRPRPRPHNGPRP, the “shrunken log2 fold change” value was 0.169. Under RRIRWRPPRLPRPRPRPNEQPRP stands -0.00804. Under RRIRPRPPRLPRPRPRPCHGPRP stands -0.0271; under RRIRDRPPRLPRPRPRPHASPRP, 0.178.

With RRIRHRPPRLPRPRPRPALSPRP, the “shrunken log2 fold change” value is -0.257. Under RRIRVRPPRLPRPRPRPRQVPRP stands 0.0645; under RRIRLRPPRLPRPRPRPQCMPRP, 0.0865. Under RRIRQRPPRLPRPRPRPLCPPRP stands -0.334; under RRIRNRPPRLPRPRPRPIPNPRP, -0.428; under RRIRRRPPRLPRPRPRPMQYPRP, -0.126. Under RRIRSRPPRLPRPRPRPFCHPRP stands -0.162; under RRIRYRPPRLPRPRPRPGFHPRP, -0.564. On to RRIRHRPPRLPRPRPRPMEHPRP, for which the “shrunken log2 fold change” value was -0.337. Under RRIRQRPPRLPRPRPRPKPYPRP stands -0.074; under RRIRGRPPRLPRPRPRPLYLPRP, -0.221.

Consider RRIRHRPPRLPRPRPRPYFAPRP, for which the “shrunken log2 fold change” value is 0.52.

Turning to RRIRERPPRLPRPRPRPRDFPRP, the “shrunken log2 fold change” value is -0.134. Under RRIRTRPPRLPRPRPRPIMSPRP stands -0.152. Consider RRIRERPPRLPRPRPRPFRRPRP, for which the “shrunken log2 fold change” value turned out to be 0.0491. Under RRIRRRPPRLPRPRPRPSGAPRP stands 0.536. Under RRIRTRPPRLPRPRPRPARPPRP stands 0.883; under RRIRLRPPRLPRPRPRPQHKPRP, -0.0846. For the sequence RRIRARPPRLPRPRPRPTPAPRP, the “shrunken log2 fold change” value was 1.05. Under RRIRRRPPRLPRPRPRPCEVPRP stands -0.0207; under RRIRIRPPRLPRPRPRPFAEPRP, -0.221; under RRIRHRPPRLPRPRPRPYRCPRP, 0.0121. Under RRIRARPPRLPRPRPRPAQMPRP stands 0.743; under RRIRTRPPRLPRPRPRPFLSPRP, -0.195. RRIRKRPPRLPRPRPRPCRMPRP: the “shrunken log2 fold change” value is -0.00386. Under RRIRERPPRLPRPRPRPTWQPRP stands 0.0759.

In the case of RRIRHRPPRLPRPRPRPEFTPRP, the “shrunken log2 fold change” value is -0.0939. Under RRIRFRPPRLPRPRPRPAMEPRP stands 0.0126.

On to RRIRGRPPRLPRPRPRPTHHPRP, for which the “shrunken log2 fold change” value came out at 0.413. Under RRIRNRPPRLPRPRPRPASLPRP stands 0.0991; under RRIRCRPPRLPRPRPRPNDVPRP, -0.215.

For RRIRFRPPRLPRPRPRPYHPPRP, the “shrunken log2 fold change” value was -0.58.

As to RRIRRRPPRLPRPRPRPEYMPRP, the “shrunken log2 fold change” value came to 0.0765.

For RRIRARPPRLPRPRPRPCPKPRP, the “shrunken log2 fold change” value is -0.0619. Under RRIRDRPPRLPRPRPRPPAVPRP stands 0.312; under RRIRCRPPRLPRPRPRPAHPPRP, 0.125; under RRIRERPPRLPRPRPRPIACPRP, -0.23.

Consider RRIRRRPPRLPRPRPRPMKSPRP, for which the “shrunken log2 fold change” value came to 0.304.

Take RRIRTRPPRLPRPRPRPIHNPRP: the “shrunken log2 fold change” value was -0.714.

Regarding RRIRVRPPRLPRPRPRPCRTPRP, the “shrunken log2 fold change” value was -1.03. Under RRIRMRPPRLPRPRPRPLECPRP stands -0.0215; under RRIRSRPPRLPRPRPRPIWAPRP, -0.133; under RRIRCRPPRLPRPRPRPDWVPRP, 0.0222. Under RRIRWRPPRLPRPRPRPQFVPRP stands -0.1; under RRIRSRPPRLPRPRPRPWWCPRP, 0.0769; under RRIRRRPPRLPRPRPRPDCNPRP, 0.311. Under RRIRNRPPRLPRPRPRPLCCPRP stands -0.371. For the sequence RRIRVRPPRLPRPRPRPCHQPRP, the “shrunken log2 fold change” value is -0.483. Regarding RRIRCRPPRLPRPRPRPHGQPRP, the “shrunken log2 fold change” value stood at 0.0389.

Regarding RRIRGRPPRLPRPRPRPEMGPRP, the “shrunken log2 fold change” value came to 1.37. Under RRIRKRPPRLPRPRPRPHADPRP stands 0.0566; under RRIRERPPRLPRPRPRPIQEPRP, -0.0167.

As for RRIRNRPPRLPRPRPRPDDWPRP, the “shrunken log2 fold change” value stood at 0.221.

For RRIRLRPPRLPRPRPRPMGFPRP, the “shrunken log2 fold change” value is -0.159. Under RRIRSRPPRLPRPRPRPKFWPRP stands 0.759; under RRIRLRPPRLPRPRPRPWWYPRP, -0.227; under RRIRERPPRLPRPRPRPWVYPRP, -0.157.

Consider RRIRVRPPRLPRPRPRPGVYPRP, for which the “shrunken log2 fold change” value was -0.0713. Under RRIRCRPPRLPRPRPRPKIEPRP stands -0.0736; under RRIRYRPPRLPRPRPRPTLKPRP, -0.283.

On to RRIRHRPPRLPRPRPRPFETPRP, for which the “shrunken log2 fold change” value is 0.0877. For RRIRRRPPRLPRPRPRPYCHPRP, the “shrunken log2 fold change” value was -0.792. Under RRIRFRPPRLPRPRPRPDTHPRP stands -0.618; under RRIRARPPRLPRPRPRPPAAPRP, 1.12. Under RRIRTRPPRLPRPRPRPGFTPRP stands -0.0298; under RRIRIRPPRLPRPRPRPKKEPRP, -0.438; under RRIRYRPPRLPRPRPRPPFQPRP, -0.22. Under RRIRWRPPRLPRPRPRPNYIPRP stands -0.57. In the case of RRIRPRPPRLPRPRPRPAYAPRP, the “shrunken log2 fold change” value came to 0.16. Under RRIRDRPPRLPRPRPRPSQCPRP stands -0.034; under RRIRKRPPRLPRPRPRPHVNPRP, 0.0388; under RRIRSRPPRLPRPRPRPQCNPRP, -0.13.

As to RRIRVRPPRLPRPRPRPHNSPRP, the “shrunken log2 fold change” value was -0.23. As to RRIRYRPPRLPRPRPRPTEKPRP, the “shrunken log2 fold change” value was -0.0336.

For the sequence RRIRSRPPRLPRPRPRPDYRPRP, the “shrunken log2 fold change” value is -0.0371. Under RRIRYRPPRLPRPRPRPMQQPRP stands -0.0118; under RRIRPRPPRLPRPRPRPTCEPRP, 0.252.

Take RRIRFRPPRLPRPRPRPPGDPRP: the “shrunken log2 fold change” value worked out at 0.58. Under RRIRARPPRLPRPRPRPCPQPRP stands -0.00027; under RRIRGRPPRLPRPRPRPFLVPRP, -0.0616. For the sequence RRIRNRPPRLPRPRPRPAWMPRP, the “shrunken log2 fold change” value was 0.056. On to RRIRWRPPRLPRPRPRPDDQPRP, for which the “shrunken log2 fold change” value is -0.0297. Under RRIRLRPPRLPRPRPRPHHPPRP stands -0.316; under RRIRWRPPRLPRPRPRPTPAPRP, 0.584. Regarding RRIRPRPPRLPRPRPRPTRNPRP, the “shrunken log2 fold change” value turned out to be 0.201. Regarding RRIRLRPPRLPRPRPRPGARPRP, the “shrunken log2 fold change” value was 0.369. Under RRIRVRPPRLPRPRPRPSSPPRP stands -0.269; under RRIRPRPPRLPRPRPRPTICPRP, 0.172; under RRIRNRPPRLPRPRPRPHPLPRP, -0.122. Consider RRIRDRPPRLPRPRPRPFMAPRP, for which the “shrunken log2 fold change” value was found to be 0.035. With RRIRLRPPRLPRPRPRPQKKPRP, the “shrunken log2 fold change” value is -0.176.

For RRIRFRPPRLPRPRPRPRWHPRP, the “shrunken log2 fold change” value is 0.059. Under RRIRWRPPRLPRPRPRPAERPRP stands 0.0973; under RRIRIRPPRLPRPRPRPYNWPRP, -0.577.
